# From patent publication WO2008131575A2 (dated 2008)
# T1: human ALK epitope peptide (amino acids 391-406 of the ALK protein) (human)
# T1 construct: the underscore is a remnant of the underlining; In the yeast screen it was fused to LexA; in the ELISA it is called the Alk LBD peptide; also called Alk LBD peptide; AIk LBD
# T1 peptide: GRIGRPDNPFRVALEY
# B1: scFv 28.11 (scFv)
# scFv: QSVLTQPPSVSAAPGQKVTISCSGSTSNIGDNYVSWYQQLPGTAPQLLIYDNTKRPSGIPDRFSGSKSGTSATLGITGLQTGDEADYYCATWDNDKWGVVFGGGTKLEVLGGGGGSGGGGSGGGGSSGGGSEVQLVESGGGLVQPGGSLRLSCAASGFTFSSYAMSWVRQAPGKGLEWVSAIETSSGSTYYADSVKGRFTISRDNSKNTLYLQMNSLRAEDTAVYYCARDAWLDVLSDGFDYWGQGTLVTVSS
# Molecular target: T1, human ALK epitope peptide (amino acids …)
# Assay: ELISA (Fig. 5)
binder,measurement,value
B1,Kd,2 to 3 nM
